According to patent publication US20100184658A1 (published 2010):

Key:
Experiment in all cases: cell-based or functional assay
[1] = target: T1, GRK7 (UniProt Q8WTQ7 1-553, limits assumed)
T1 sequence (looked up): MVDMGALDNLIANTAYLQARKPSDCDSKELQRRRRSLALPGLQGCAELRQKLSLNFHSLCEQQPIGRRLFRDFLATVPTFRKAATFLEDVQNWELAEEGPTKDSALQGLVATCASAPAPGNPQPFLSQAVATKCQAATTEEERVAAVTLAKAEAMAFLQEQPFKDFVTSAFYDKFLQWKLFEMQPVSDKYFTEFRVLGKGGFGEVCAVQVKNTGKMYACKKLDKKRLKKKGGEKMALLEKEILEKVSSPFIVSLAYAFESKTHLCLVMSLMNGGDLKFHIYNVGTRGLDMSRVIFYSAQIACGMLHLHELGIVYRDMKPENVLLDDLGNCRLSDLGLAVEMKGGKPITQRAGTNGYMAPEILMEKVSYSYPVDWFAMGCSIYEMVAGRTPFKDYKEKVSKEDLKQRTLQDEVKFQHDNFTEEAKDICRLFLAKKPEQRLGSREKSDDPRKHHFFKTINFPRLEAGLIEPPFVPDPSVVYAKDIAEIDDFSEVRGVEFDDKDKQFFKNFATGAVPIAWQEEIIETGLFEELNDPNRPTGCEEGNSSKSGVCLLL

[2] = target: CAMK2D (CaMKII delta) (UniProt Q13557 1-499, limits assumed)
[3] = target: T2, ADRBK1 (GRK2) (UniProt P25098 1-689, limits assumed)
T2 sequence (looked up): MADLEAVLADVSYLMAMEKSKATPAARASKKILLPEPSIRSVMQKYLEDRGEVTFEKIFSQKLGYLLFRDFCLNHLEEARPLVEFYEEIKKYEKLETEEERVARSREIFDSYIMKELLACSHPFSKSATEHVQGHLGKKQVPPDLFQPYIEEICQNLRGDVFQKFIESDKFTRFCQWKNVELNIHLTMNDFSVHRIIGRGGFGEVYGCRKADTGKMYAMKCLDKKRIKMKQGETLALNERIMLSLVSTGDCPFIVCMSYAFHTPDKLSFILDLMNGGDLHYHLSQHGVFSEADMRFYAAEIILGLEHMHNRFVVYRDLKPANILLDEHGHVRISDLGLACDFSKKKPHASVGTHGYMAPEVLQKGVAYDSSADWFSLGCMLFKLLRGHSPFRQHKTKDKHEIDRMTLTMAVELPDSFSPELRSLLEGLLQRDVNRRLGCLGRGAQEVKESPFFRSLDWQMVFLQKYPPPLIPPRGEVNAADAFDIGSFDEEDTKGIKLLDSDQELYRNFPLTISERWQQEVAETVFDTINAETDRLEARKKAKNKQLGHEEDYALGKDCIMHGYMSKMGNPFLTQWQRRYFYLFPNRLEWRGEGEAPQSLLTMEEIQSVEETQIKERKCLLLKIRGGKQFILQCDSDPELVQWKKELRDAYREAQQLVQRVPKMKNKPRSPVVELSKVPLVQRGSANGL

[4] = target: RPS6KA5 (MSK1) (UniProt O75582 1-802, limits assumed)
[5] = target: RPS6KA3 (RSK2) Ribosomal protein S6 kinase, 90 kDa, polypeptide 3 (UniProt P51812 1-740, limits assumed)
[6] = target: PASK (UniProt Q96RG2 879-1323, limits assumed)
[7] = target: T3, STK4 (MST1) Serine/threonine kinase 4 (UniProt Q13043 1-487, limits assumed)
T3 sequence (looked up): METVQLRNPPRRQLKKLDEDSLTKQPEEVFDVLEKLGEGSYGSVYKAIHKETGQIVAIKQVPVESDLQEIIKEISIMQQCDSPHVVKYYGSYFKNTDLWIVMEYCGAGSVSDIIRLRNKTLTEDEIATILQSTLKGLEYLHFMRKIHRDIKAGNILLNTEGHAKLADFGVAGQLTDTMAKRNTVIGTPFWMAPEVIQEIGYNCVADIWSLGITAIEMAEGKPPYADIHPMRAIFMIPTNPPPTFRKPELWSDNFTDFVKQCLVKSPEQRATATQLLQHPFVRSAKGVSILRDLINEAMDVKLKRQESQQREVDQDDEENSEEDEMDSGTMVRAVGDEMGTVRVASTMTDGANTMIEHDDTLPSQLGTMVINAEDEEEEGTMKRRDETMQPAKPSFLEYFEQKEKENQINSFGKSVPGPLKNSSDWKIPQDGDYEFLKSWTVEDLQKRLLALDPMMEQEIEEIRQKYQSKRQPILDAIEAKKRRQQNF

[8] = target: T4, PRKD2 (PKD2) Protein kinase D2 (UniProt Q9BZL6 1-878, limits assumed)
T4 sequence (looked up): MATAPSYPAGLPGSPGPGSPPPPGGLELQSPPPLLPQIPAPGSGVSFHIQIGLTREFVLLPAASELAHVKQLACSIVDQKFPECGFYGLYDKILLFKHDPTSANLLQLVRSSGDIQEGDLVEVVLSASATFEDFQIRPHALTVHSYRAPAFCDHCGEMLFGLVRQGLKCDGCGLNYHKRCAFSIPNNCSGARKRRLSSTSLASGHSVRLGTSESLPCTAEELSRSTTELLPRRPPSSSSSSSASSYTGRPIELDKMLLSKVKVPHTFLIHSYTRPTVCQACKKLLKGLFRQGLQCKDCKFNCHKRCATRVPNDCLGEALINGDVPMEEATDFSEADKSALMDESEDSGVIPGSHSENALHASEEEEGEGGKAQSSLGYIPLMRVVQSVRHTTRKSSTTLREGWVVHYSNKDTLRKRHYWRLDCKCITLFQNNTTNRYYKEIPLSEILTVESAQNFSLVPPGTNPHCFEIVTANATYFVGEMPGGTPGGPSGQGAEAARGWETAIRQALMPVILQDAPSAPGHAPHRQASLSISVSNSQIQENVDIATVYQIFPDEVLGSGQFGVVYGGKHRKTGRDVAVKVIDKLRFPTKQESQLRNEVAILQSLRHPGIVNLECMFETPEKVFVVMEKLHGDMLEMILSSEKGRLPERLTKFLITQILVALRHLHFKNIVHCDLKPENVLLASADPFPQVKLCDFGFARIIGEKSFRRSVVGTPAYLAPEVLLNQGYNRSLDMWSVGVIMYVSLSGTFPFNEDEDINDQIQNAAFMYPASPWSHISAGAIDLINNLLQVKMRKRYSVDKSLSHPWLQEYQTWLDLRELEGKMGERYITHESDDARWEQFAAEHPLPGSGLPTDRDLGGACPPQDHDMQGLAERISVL
Also: test concentration or dose not given here.

CAMK2D (CaMKII delta), sequence (Q13557 whole entry, stated change not applied): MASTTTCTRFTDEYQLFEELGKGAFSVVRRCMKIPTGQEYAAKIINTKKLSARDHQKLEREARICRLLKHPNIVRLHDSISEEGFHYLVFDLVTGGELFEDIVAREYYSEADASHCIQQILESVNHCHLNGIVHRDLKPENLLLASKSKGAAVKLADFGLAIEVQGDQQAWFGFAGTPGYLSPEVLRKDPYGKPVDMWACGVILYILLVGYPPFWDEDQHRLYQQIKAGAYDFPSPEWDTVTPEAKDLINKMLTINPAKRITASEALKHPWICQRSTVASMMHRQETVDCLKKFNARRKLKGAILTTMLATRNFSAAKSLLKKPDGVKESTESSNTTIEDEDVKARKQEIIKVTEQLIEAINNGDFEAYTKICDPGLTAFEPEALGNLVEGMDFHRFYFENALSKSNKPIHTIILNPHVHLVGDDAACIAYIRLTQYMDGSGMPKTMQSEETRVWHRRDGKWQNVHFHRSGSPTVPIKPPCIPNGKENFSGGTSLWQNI
RPS6KA3 (RSK2) Ribosomal protein S6 kinase, 90 kDa, polypeptide 3, sequence (P51812 whole entry): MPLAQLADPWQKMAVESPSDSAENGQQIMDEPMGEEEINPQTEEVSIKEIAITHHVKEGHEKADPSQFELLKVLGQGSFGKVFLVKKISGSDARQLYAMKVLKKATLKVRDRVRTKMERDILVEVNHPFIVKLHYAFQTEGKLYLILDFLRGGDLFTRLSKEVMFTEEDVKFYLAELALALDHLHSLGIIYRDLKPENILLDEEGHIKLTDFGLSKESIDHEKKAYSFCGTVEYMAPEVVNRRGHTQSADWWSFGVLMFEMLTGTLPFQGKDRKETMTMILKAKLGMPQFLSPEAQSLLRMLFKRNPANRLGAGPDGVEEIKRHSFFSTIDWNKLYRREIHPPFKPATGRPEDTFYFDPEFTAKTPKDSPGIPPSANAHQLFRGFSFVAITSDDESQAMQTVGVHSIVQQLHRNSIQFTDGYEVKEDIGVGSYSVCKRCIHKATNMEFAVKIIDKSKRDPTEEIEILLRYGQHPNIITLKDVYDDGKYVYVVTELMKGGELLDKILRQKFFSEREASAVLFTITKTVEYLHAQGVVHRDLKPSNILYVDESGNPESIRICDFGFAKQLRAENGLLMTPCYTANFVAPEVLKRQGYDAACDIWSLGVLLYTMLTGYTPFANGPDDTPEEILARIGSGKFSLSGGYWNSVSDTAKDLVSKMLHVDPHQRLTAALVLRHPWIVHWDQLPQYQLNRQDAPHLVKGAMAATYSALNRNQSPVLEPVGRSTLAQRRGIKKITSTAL
RPS6KA5 (MSK1), sequence (O75582 whole entry): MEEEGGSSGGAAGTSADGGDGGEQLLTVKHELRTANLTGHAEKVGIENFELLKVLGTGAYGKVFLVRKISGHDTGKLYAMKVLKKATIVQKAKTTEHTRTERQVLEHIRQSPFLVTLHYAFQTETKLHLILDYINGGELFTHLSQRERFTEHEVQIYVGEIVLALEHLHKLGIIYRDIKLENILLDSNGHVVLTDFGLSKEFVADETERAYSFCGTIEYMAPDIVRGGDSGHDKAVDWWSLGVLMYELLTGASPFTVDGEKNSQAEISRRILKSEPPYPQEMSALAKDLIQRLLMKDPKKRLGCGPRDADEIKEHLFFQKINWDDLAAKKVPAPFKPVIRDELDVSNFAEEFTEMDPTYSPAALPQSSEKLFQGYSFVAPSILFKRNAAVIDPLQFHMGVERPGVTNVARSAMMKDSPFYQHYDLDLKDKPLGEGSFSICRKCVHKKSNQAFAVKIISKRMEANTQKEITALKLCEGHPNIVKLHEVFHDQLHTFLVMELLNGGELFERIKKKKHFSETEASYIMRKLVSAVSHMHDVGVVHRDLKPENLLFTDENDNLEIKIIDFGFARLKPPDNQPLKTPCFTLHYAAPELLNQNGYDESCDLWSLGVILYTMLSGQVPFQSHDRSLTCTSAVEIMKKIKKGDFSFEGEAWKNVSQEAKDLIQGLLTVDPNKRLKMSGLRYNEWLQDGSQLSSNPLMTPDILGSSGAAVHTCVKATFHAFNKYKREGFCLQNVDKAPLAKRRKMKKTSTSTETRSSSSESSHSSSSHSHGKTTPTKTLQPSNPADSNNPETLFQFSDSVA
PASK, sequence (Q96RG2 879-1323 limits assumed): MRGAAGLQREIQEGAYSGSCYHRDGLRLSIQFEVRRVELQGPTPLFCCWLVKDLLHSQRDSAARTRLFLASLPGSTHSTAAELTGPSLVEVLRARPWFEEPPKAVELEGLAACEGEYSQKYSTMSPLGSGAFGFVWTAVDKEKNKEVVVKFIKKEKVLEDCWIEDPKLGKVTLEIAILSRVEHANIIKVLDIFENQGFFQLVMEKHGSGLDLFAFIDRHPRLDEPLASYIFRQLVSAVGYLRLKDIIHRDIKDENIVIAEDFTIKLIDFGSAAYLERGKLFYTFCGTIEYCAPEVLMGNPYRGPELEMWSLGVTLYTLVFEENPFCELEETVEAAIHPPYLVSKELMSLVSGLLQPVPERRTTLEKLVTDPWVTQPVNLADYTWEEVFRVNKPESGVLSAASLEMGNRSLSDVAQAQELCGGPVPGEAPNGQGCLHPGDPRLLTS

Binder: SGRPPMIVWFNRPFLIAVSHTHGQTILFMAKVINPVGA [D3 peptide]
- % Inhibition mean [1]: 49.9%
- % Inhibition mean [2]: 72.5%
- % Inhibition mean [3]: 56.1%
- % Inhibition mean [4]: 85%
- % Inhibition mean [5]: 93%
- % Inhibition mean [6]: 80.8%
- % Inhibition mean [7]: 99%
- % Inhibition mean [8]: 92.5%
